In data set [1] the test system is pyRbkR. As to the kind of experiment: HPLC end-point riboflavin kinase assay, FMN detected at […] nm. It counts as biochemical, Pyrobaculum yellowstonensis. The following applies: read-out: apparent Km; saturating CTP (0.2 mM), 5 mM MgCl2, 0.1 M NaCl, HEPES pH 8, 60 °C.
Data set [2] deals with the molecule itself. As to the kind of experiment: crystal structure.
In data set [3] the target is T1, taRbkR (Thermoplasma acidophilum, UniProt Q9HJA6 1-220).
T1 sequence: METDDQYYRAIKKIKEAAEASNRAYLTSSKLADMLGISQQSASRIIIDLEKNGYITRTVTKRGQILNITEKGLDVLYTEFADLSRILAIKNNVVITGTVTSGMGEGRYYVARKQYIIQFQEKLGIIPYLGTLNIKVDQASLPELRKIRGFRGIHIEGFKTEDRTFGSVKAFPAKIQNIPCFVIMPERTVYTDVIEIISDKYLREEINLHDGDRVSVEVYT
As to the kind of experiment: X-ray crystallography 1.85 A.

In data set [4] the target is T1, taRbkR. In words: fluorescence polarization. Background: In fluorescence polarisation assays a small probe gives low polarisation when free and higher when bound to something large.

A word on the Km: it is the substrate concentration at which the rate is half of its maximum. A word on the stoichiometry N: it is the number of molecules, sites or subunits per partner or assembly.

Consider `Cc1cc2nc3c(=O)[nH]c(=O)nc-3n(C[C@H](O)[C@H](O)[C@H](O)CO)c2cc1C` [riboflavin], for which the Km in data set [1] came out at 73 ± 26 µM.

B1: RbkR protein from Thermoplasma acidophilum (bifunctional riboflavin kinase/regulator) (natural protein)
chain: ETDDQYYRAIKKIKEAAEASNRAYLTSSKLADMLGISQQSASRIIIDLEKNGYITRTVTKRGQILNITEKGLDVLYTEFADLSRILAIKNNVVITGTVTSGMGEGRYYVARKQYIIQFQEKLGIIPYLGTLNIKVDQASLPELRKIRGFRGIHIEGFKTEDRTFGSVKAFPAKIQNIPCFVIMPERTVYTDVIEIISDKYLREEINLHDGDRVSVEVYT
Consider B1, for which the “stoichiometry N” value in data set [2] was 2.

B2: ta ribT operator crystal duplex (dsDNA)
DNA 1: ATTACTAATTCACGAGTAA
DNA 2: TTTACTCGTGAATTAGTAA
For B2, the binding result in data set [3] is on record as “binds”.

B3: ta ribT 35 bp (dsDNA)
DNA 1: TATGCTACTAATTCACGAGTAATTACTCAAATATT
DNA 2: AATATTTGAGTAATTACTCGTGAATTAGTAGCATA
As to B3, the “apparent K (half saturation)” value in data set [4] was around 16 nM.

These data come from paper PMC5397151 (Nucleic Acids Research, 2017).
